Measurements as given in US20160272693A1 (ZEALAND PHARMA A S, published 2016).
*1 amine or outer side, *2 acyl side, *3 side chain or, on linkers, in order; H or OH if unused. Bridges are numbered along the chain shown (N, C = ends). [ ]: non-standard residue; d: D form. The star is where a group is joined. C20 diacid = O=C(O)CCCCCCCCCCCCCCCCCCC(=O)*; γGlu = O=C(O)[C@H](CCC(=O)[*:2])N[*:1]; Hyp = O=C(O)[C@@H]1C[C@@H](O)CN1; NMeI = CC[C@H](C)[C@H](NC)C(=O)O; Aad = N[C@@H](CCCC(=O)O)C(=O)O; Orn = NCCC[C@H](N)C(=O)O; Sar = CNCC(=O)O

B1: [19CD]-isoGlu-R-C( )-GTAT-C( )-ATERLAHFLTRSSF-Gly(Me)-A-Ile(Me)-LSSTEVGSGT-Hyp-NH2 (Compd. 13) (peptide)
peptide: {C20 diacid}-[γGlu]RCGTATCATERLAHFLTRSSF[Sar]A[NMeI]LSSTEVGSGT[Hyp]-NH2
modifications: disulfide 3-8
SMILES: CC[C@H](C)[C@@H](C(=O)N[C@@H](CC(C)C)C(=O)N[C@@H](CO)C(=O)N[C@@H](CO)C(=O)N[C@H](C(=O)N[C@@H](CCC(=O)O)C(=O)N[C@H](C(=O)NCC(=O)N[C@@H](CO)C(=O)NCC(=O)N[C@H](C(=O)N1C[C@H](O)C[C@H]1C(N)=O)[C@@H](C)O)C(C)C)[C@@H](C)O)N(C)C(=O)[C@H](C)NC(=O)CN(C)C(=O)[C@H](Cc1ccccc1)NC(=O)[C@H](CO)NC(=O)[C@H](CO)NC(=O)[C@H](CCCNC(=N)N)NC(=O)[C@@H](NC(=O)[C@H](CC(C)C)NC(=O)[C@H](Cc1ccccc1)NC(=O)[C@H](Cc1c[nH]cn1)NC(=O)[C@H](C)NC(=O)[C@H](CC(C)C)NC(=O)[C@H](CCCNC(=N)N)NC(=O)[C@H](CCC(=O)O)NC(=O)[C@@H](NC(=O)[C@H](C)NC(=O)[C@@H]1CSSC[C@H](NC(=O)[C@H](CCCNC(=N)N)NC(=O)CC[C@H](NC(=O)CCCCCCCCCCCCCCCCCCC(=O)O)C(=O)O)C(=O)NCC(=O)N[C@@H]([C@@H](C)O)C(=O)N[C@@H](C)C(=O)N[C@@H]([C@@H](C)O)C(=O)N1)[C@@H](C)O)[C@@H](C)O
B2: [19CD]-isoGlu-R-C( )-NTAT-C( )-ATQRLAHFLHRF-Gly(Me)-A-Ile(Me)-LSSTEVGSETP-NH2 (Compd. 14) (peptide)
peptide: {C20 diacid-γGlu}-RCNTATCATQRLAHFLHRF[Sar]A[NMeI]LSSTEVGSETP-NH2
modifications: disulfide 2-7
SMILES: CC[C@H](C)[C@@H](C(=O)N[C@@H](CC(C)C)C(=O)N[C@@H](CO)C(=O)N[C@@H](CO)C(=O)N[C@H](C(=O)N[C@@H](CCC(=O)O)C(=O)N[C@H](C(=O)NCC(=O)N[C@@H](CO)C(=O)N[C@@H](CCC(=O)O)C(=O)N[C@H](C(=O)N1CCC[C@H]1C(N)=O)[C@@H](C)O)C(C)C)[C@@H](C)O)N(C)C(=O)[C@H](C)NC(=O)CN(C)C(=O)[C@H](Cc1ccccc1)NC(=O)[C@H](CCCNC(=N)N)NC(=O)[C@H](Cc1c[nH]cn1)NC(=O)[C@H](CC(C)C)NC(=O)[C@H](Cc1ccccc1)NC(=O)[C@H](Cc1c[nH]cn1)NC(=O)[C@H](C)NC(=O)[C@H](CC(C)C)NC(=O)[C@H](CCCNC(=N)N)NC(=O)[C@H](CCC(N)=O)NC(=O)[C@@H](NC(=O)[C@H](C)NC(=O)[C@@H]1CSSC[C@H](NC(=O)[C@H](CCCNC(=N)N)NC(=O)CC[C@H](NC(=O)CCCCCCCCCCCCCCCCCCC(=O)O)C(=O)O)C(=O)N[C@@H](CC(N)=O)C(=O)N[C@@H]([C@@H](C)O)C(=O)N[C@@H](C)C(=O)N[C@@H]([C@@H](C)O)C(=O)N1)[C@@H](C)O
B3: [19CD]-isoGlu-R-C( )-GTAT-C( )-ATERLANFLVRSSF-Gly(Me)-A-Ile(Me)-LSSTEVGSNT-Hyp-NH2 (Compd. 17) (peptide)
peptide: {C20 diacid-γGlu}-RCGTATCATERLANFLVRSSF[Sar]A[NMeI]LSSTEVGSNT[Hyp]-NH2
modifications: disulfide 2-7
SMILES: CC[C@H](C)[C@@H](C(=O)N[C@@H](CC(C)C)C(=O)N[C@@H](CO)C(=O)N[C@@H](CO)C(=O)N[C@H](C(=O)N[C@@H](CCC(=O)O)C(=O)N[C@H](C(=O)NCC(=O)N[C@@H](CO)C(=O)N[C@@H](CC(N)=O)C(=O)N[C@H](C(=O)N1C[C@H](O)C[C@H]1C(N)=O)[C@@H](C)O)C(C)C)[C@@H](C)O)N(C)C(=O)[C@H](C)NC(=O)CN(C)C(=O)[C@H](Cc1ccccc1)NC(=O)[C@H](CO)NC(=O)[C@H](CO)NC(=O)[C@H](CCCNC(=N)N)NC(=O)[C@@H](NC(=O)[C@H](CC(C)C)NC(=O)[C@H](Cc1ccccc1)NC(=O)[C@H](CC(N)=O)NC(=O)[C@H](C)NC(=O)[C@H](CC(C)C)NC(=O)[C@H](CCCNC(=N)N)NC(=O)[C@H](CCC(=O)O)NC(=O)[C@@H](NC(=O)[C@H](C)NC(=O)[C@@H]1CSSC[C@H](NC(=O)[C@H](CCCNC(=N)N)NC(=O)CC[C@H](NC(=O)CCCCCCCCCCCCCCCCCCC(=O)O)C(=O)O)C(=O)NCC(=O)N[C@@H]([C@@H](C)O)C(=O)N[C@@H](C)C(=O)N[C@@H]([C@@H](C)O)C(=O)N1)[C@@H](C)O)C(C)C
B4: [19CD]-isoGlu-R-C( )-GTAT-C( )-ATERLAHFLTRSSF-Gly(Me)-A-Ile(Me)-LSSTEVGS-Aad-T-Hyp-NH2 (Compd. 12) (peptide)
peptide: {C20 diacid}-[γGlu]RCGTATCATERLAHFLTRSSF[Sar]A[NMeI]LSSTEVGS[Aad]T[Hyp]-NH2
modifications: disulfide 3-8
SMILES: CC[C@H](C)[C@@H](C(=O)N[C@@H](CC(C)C)C(=O)N[C@@H](CO)C(=O)N[C@@H](CO)C(=O)N[C@H](C(=O)N[C@@H](CCC(=O)O)C(=O)N[C@H](C(=O)NCC(=O)N[C@@H](CO)C(=O)N[C@@H](CCCC(=O)O)C(=O)N[C@H](C(=O)N1C[C@H](O)C[C@H]1C(N)=O)[C@@H](C)O)C(C)C)[C@@H](C)O)N(C)C(=O)[C@H](C)NC(=O)CN(C)C(=O)[C@H](Cc1ccccc1)NC(=O)[C@H](CO)NC(=O)[C@H](CO)NC(=O)[C@H](CCCNC(=N)N)NC(=O)[C@@H](NC(=O)[C@H](CC(C)C)NC(=O)[C@H](Cc1ccccc1)NC(=O)[C@H](Cc1c[nH]cn1)NC(=O)[C@H](C)NC(=O)[C@H](CC(C)C)NC(=O)[C@H](CCCNC(=N)N)NC(=O)[C@H](CCC(=O)O)NC(=O)[C@@H](NC(=O)[C@H](C)NC(=O)[C@@H]1CSSC[C@H](NC(=O)[C@H](CCCNC(=N)N)NC(=O)CC[C@H](NC(=O)CCCCCCCCCCCCCCCCCCC(=O)O)C(=O)O)C(=O)NCC(=O)N[C@@H]([C@@H](C)O)C(=O)N[C@@H](C)C(=O)N[C@@H]([C@@H](C)O)C(=O)N1)[C@@H](C)O)[C@@H](C)O
B5: [19CD]-isoGlu-R-C( )-GTAT-C( )-ATERLAHFLHRSSF-Gly(Me)-A-Ile(Me)-LSSTEVGSNTP-NH2 (Compd. 15) (peptide)
peptide: {C20 diacid}-[γGlu]RCGTATCATERLAHFLHRSSF[Sar]A[NMeI]LSSTEVGSNTP-NH2
modifications: disulfide 3-8
SMILES: CC[C@H](C)[C@@H](C(=O)N[C@@H](CC(C)C)C(=O)N[C@@H](CO)C(=O)N[C@@H](CO)C(=O)N[C@H](C(=O)N[C@@H](CCC(=O)O)C(=O)N[C@H](C(=O)NCC(=O)N[C@@H](CO)C(=O)N[C@@H](CC(N)=O)C(=O)N[C@H](C(=O)N1CCC[C@H]1C(N)=O)[C@@H](C)O)C(C)C)[C@@H](C)O)N(C)C(=O)[C@H](C)NC(=O)CN(C)C(=O)[C@H](Cc1ccccc1)NC(=O)[C@H](CO)NC(=O)[C@H](CO)NC(=O)[C@H](CCCNC(=N)N)NC(=O)[C@H](Cc1c[nH]cn1)NC(=O)[C@H](CC(C)C)NC(=O)[C@H](Cc1ccccc1)NC(=O)[C@H](Cc1c[nH]cn1)NC(=O)[C@H](C)NC(=O)[C@H](CC(C)C)NC(=O)[C@H](CCCNC(=N)N)NC(=O)[C@H](CCC(=O)O)NC(=O)[C@@H](NC(=O)[C@H](C)NC(=O)[C@@H]1CSSC[C@H](NC(=O)[C@H](CCCNC(=N)N)NC(=O)CC[C@H](NC(=O)CCCCCCCCCCCCCCCCCCC(=O)O)C(=O)O)C(=O)NCC(=O)N[C@@H]([C@@H](C)O)C(=O)N[C@@H](C)C(=O)N[C@@H]([C@@H](C)O)C(=O)N1)[C@@H](C)O
B6: [19CD]-isoGlu-R-C( )-GTAT-C( )-ATERLAHFLTRSSF-Gly(Me)-A-Ile(Me)-LSSTEVGS-Orn-T-Hyp-NH2 (Compd. 11) (peptide)
peptide: {C20 diacid}-[γGlu]RCGTATCATERLAHFLTRSSF[Sar]A[NMeI]LSSTEVGS[Orn]T[Hyp]-NH2
modifications: disulfide 3-8
SMILES: CC[C@H](C)[C@@H](C(=O)N[C@@H](CC(C)C)C(=O)N[C@@H](CO)C(=O)N[C@@H](CO)C(=O)N[C@H](C(=O)N[C@@H](CCC(=O)O)C(=O)N[C@H](C(=O)NCC(=O)N[C@@H](CO)C(=O)N[C@@H](CCCN)C(=O)N[C@H](C(=O)N1C[C@H](O)C[C@H]1C(N)=O)[C@@H](C)O)C(C)C)[C@@H](C)O)N(C)C(=O)[C@H](C)NC(=O)CN(C)C(=O)[C@H](Cc1ccccc1)NC(=O)[C@H](CO)NC(=O)[C@H](CO)NC(=O)[C@H](CCCNC(=N)N)NC(=O)[C@@H](NC(=O)[C@H](CC(C)C)NC(=O)[C@H](Cc1ccccc1)NC(=O)[C@H](Cc1c[nH]cn1)NC(=O)[C@H](C)NC(=O)[C@H](CC(C)C)NC(=O)[C@H](CCCNC(=N)N)NC(=O)[C@H](CCC(=O)O)NC(=O)[C@@H](NC(=O)[C@H](C)NC(=O)[C@@H]1CSSC[C@H](NC(=O)[C@H](CCCNC(=N)N)NC(=O)CC[C@H](NC(=O)CCCCCCCCCCCCCCCCCCC(=O)O)C(=O)O)C(=O)NCC(=O)N[C@@H]([C@@H](C)O)C(=O)N[C@@H](C)C(=O)N[C@@H]([C@@H](C)O)C(=O)N1)[C@@H](C)O)[C@@H](C)O

Target: T1, human amylin receptor 3 (hAMYR3), hCTR2 co-expressed with human receptor activity modifying protein 3 (hRAMP3) (human, UniProt P30988 25-474; O60896 24-148)
T1 sequence (looked up) 1: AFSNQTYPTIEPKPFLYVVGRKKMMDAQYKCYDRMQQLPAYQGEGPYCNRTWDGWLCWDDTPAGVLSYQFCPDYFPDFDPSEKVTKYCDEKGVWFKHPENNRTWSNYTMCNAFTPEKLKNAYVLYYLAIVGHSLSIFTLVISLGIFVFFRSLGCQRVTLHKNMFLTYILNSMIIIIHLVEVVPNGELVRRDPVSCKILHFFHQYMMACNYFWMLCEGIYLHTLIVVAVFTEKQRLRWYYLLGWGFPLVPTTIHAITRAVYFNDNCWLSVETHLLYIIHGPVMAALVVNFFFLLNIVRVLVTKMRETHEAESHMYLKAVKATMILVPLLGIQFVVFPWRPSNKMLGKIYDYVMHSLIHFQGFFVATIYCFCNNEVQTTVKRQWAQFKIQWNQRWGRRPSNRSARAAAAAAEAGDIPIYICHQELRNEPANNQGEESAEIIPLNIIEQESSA
T1 sequence (looked up) 2: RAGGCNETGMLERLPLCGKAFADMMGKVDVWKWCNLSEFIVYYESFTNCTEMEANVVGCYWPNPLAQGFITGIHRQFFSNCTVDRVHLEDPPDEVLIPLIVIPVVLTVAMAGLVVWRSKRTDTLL
Assay: cell-based or functional assay

Binder | hAMYR3 EC50 (nM); cAMP induction
B1 | 0.38 nM
B2 | 0.26 nM
{C20 diacid-γGlu}-RCNTATCATQRLAHFLHRSSF[Sar]A[NMeI]LSSTEVGSNTP-NH2 (disulfide 2-7) [[19CD]-isoGlu-R-C( )-NTAT-C( )-ATQRLAHFLHRSSF-Gly(Me)-A-Ile(Me)-LSSTEVGSNTP-NH2 (Compd. 16)] | 0.11 nM
B3 | 0.61 nM
B4 | 0.25 nM
B5 | 0.079 nM
B6 | 0.2 nM
